Source: paper PMC2921123 (2010)
Blank lines part the entries; values can stand above or below the molecule they belong to.

Experiments:
Assay in all cases: SPR
[1] = target: Fc portion of a human BCR μ-chain (Fcμ, amino acid residues 258-586), corresponding to Cμ2-Cμ4 (human)
[2] = target: human Igαβ heterodimer, extracellular domains fused with a leucine zipper (Igαβ-LZ) (human) (UniProt P11912)
Fcμ Fc = target: T1, Fcμ Fc (Homo sapiens, UniProt P01871)
T1 chain: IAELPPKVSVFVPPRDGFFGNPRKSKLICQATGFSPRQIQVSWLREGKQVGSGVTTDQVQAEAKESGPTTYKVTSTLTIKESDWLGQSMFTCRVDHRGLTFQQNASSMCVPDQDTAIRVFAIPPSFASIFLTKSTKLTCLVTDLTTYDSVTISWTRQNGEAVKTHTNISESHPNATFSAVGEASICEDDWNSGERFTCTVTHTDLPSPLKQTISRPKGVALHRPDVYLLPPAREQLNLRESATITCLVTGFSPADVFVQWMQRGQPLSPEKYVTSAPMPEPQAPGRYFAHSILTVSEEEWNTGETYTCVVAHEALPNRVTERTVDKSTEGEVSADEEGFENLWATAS

Fc portion of a human BCR μ-chain (Fcμ, amino acid residues 258-586), corresponding to Cμ2-Cμ4 (human), sequence (P01871 whole entry, the tested form may be a part): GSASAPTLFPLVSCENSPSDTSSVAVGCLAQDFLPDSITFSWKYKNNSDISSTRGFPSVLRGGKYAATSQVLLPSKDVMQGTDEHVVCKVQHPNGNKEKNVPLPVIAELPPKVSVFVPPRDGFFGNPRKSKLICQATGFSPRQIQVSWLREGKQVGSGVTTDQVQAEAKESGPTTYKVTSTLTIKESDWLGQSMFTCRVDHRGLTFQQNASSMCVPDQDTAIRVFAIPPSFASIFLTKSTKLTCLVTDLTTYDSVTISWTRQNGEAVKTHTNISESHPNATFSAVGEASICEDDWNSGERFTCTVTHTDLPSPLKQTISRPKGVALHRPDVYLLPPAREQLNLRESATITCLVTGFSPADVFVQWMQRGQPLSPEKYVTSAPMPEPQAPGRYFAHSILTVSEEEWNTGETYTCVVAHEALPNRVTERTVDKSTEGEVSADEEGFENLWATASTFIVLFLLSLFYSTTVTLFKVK

Molecule: human Igβ extracellular portion, R55A/K56A/R57A (β1) (from UniProt P40259 26-159) (domain or fragment)
fold reduction of binding against the wild type [1]: 6 fold

Molecule: human Igα extracellular portion, N60A (α3) (from UniProt P11912 33-143) (domain or fragment)
fold increase of binding against the wild type [1]: 2 fold

Molecule: human IgM (from UniProt P01591 23-159) (antibody)
Kd [2]: > 10000 nM

The remaining lines, values ahead:

fold reduction of binding against the wild type [1]: 2 fold
Molecule: human Igβ extracellular portion, Q123A/Q124A/K125A (β4) (from UniProt P40259 26-159) (domain or fragment)

Kd (Fcμ Fc): ~2000 nM
B1: Igαβ (protein)
chain 1: LWMHKVPASLMVSLGEDAHFQCPHNSSNNANVTWWRVLHGNYTWPPEFLGPGEDPNGTLIIQNVNKSHGGIYVCRVQEGNESYQQSCGTYLRVRQPPPRPFLDMGEGTKNRIITAEGIILLFCAVVPGTLLLFRKRWQNEKLGLDAGDEYEDENLYEGLNLDDCSMYEDISRGLQGTYQDVGSLNIGDVQLEKP
chain 2: ARSEDRYRNPKGSACSRIWQSPRFIARKRGFTVKMHCYMNSASGNVSWLWKQEMDENPQQLKLEKGRMEESQNESLATLTIQGIRFEDNGIYFCQQKCNNTSEVYQGCGTELRVMGFSTLAQLKQRNTLKDGIIMIQTLLIILFIIVPIFLLLDKDDSKAGMEEDHTYEGLDIDQTATYEDIVTLRTGEVKWSVGEHPGQE
